Laboratory results published in patent US20240390460A1 (Regeneron, published 2024).
Values belong to the binder of their own block, whether it stands above or below them.

Assays:
[1] = biological target: T1, Human IL2RG (interleukin-2 receptor subunit gamma), wild type (human, UniProt P31785 23-369); assay: flow cytometry on iPSC-derived NK cells
T1 construct: also called wild type human IL2RG; WT IL2RG
T1 sequence: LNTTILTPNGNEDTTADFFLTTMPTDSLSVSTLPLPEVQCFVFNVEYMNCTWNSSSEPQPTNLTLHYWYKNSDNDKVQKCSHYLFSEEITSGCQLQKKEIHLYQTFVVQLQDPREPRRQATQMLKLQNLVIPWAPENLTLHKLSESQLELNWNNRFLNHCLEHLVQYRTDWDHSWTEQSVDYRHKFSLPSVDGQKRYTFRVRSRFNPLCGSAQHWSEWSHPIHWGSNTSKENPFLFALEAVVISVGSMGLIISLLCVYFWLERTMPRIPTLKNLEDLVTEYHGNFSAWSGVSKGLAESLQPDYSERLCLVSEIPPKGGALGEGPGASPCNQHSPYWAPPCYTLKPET

murine Il2rg = biological target: T2, murine Il2rg (murine, UniProt P34902 23-369); assay: stated in Example 1 for donor T cells of wild-type mice; no binding assay described
T2 construct: whole, on cells; also called mouse IL2RG; murine IL2rg receptor
T2 sequence (looked up): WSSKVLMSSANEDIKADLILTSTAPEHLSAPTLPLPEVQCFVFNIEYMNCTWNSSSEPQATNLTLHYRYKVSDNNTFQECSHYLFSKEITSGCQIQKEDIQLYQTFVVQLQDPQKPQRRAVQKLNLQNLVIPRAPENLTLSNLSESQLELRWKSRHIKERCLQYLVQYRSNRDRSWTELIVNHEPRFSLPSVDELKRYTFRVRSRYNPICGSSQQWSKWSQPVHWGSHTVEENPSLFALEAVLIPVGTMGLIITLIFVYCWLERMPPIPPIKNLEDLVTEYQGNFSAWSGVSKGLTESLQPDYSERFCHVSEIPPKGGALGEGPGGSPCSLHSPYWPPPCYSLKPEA

[2] = biological target: T3, recombinant human IL2RG extracellular domain (human, UniProt P31785 23-262); assay: cryoEM of the complex
T3 construct: also called IL2RG ectodomain; ECD
T3 sequence: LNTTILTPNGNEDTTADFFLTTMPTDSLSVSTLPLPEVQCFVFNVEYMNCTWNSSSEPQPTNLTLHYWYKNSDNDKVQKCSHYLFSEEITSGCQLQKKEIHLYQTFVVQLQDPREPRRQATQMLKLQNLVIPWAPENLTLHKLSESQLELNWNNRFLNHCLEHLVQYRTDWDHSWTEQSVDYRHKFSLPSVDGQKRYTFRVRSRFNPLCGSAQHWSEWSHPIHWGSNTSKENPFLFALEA

binding result [1]: binds | binding result (murine Il2rg): no binding
B1: REGN7257 (antibody, human IgG4 S228P, kappa, V domains shown)
VH: EVQLVESGGGLVQPGGSLRLSCAASGFIFSSYEMHWVRQAPGKGLEWISYISSSGTTIYYADSVKGRFTISRDNAKNSLYLHMNSLRAEDTAVYYCTRARITGTFDVFDIWGQGTMVTVSS
VL: DIQMTQSPSSLSASVGDRVTITCRASQSISSYLNWYQQKPGKAPKLLIFAASNLQSGVPSRFSGSRSGTDFTLTISSLQPEDFATYYCQQNYNIPYTFGQGTKLEIKR
notes: also called H4H12889P; anti-IL2RG antibody

binding result [2]: binds
B2: REGN7257 Fab region (Fab, V domains shown)
VH: B1 VH
VL: DIQMTQSPSSLSASVGDRVTITCRASQSISSYLNWYQQKPGKAPKLLIFAASNLQSGVPSRFSGSRSGTDFTLTISSLQPEDFATYYCQQNYNIPYTFGQGTKLEIK
notes: Fab region of REGN7257 used for cryoEM
